Assays:
[1] = substrate: C[S+](CC[C@H](N)c1nn[nH]n1)C[C@H]1O[C@@H](n2cnc3c(N)ncnc32)[C@H](O)[C@@H]1O; test: methyltransferase assay, HPLC / A410; format: biochemical, Streptomyces peucetius; conditions: saturating ClNP 1.5 mM, 100 mM Tris pH 8.0, 37 °C, methyl donor
purified protein = substrate: C[S+](CC[C@H](N)C(=O)O)C[C@H]1O[C@@H](n2cnc3c(N)ncnc32)[C@H](O)[C@@H]1O; test: purified protein; conditions: saturating ClNP 1.5 mM, 100 mM Tris pH 8.0, 37 °C, methyl donor

B1: DnrK (Streptomyces peucetius) (protein)
chain: MTAEPTVAARPQQIDALRTLIRLGSLHTPMVVRTAATLRLVDHILAGARTVKALAARTDTRPEALLRLIRHLVAIGLLEEDAPGEFVPTEVGELLADDHPAAQRAWHDLTQAVARADISFTRLPDAIRTGRPTYESIYGKPFYEDLAGRPDLRASFDSLLACDQDVAFDAPAAAYDWTNVRHVLDVGGGKGGFAAAIARRAPHVSATVLEMAGTVDTARSYLKDEGLSDRVDVVEGDFFEPLPRKADAIILSFVLLNWPDHDAVRILTRCAEALEPGGRILIHERDDLHENSFNEQFTELDLRMLVFLGGALRTREKWDGLAASAGLVVEEVRQLPSPTIPYDLSLLVLAPAATGA
Work on B1 yielded a Km [1] of 335 ± 40 µmol/L, a kcat [1] of 0.000517 ± 1.67e-05 s⁻¹ and a Km (purified protein) of 138 ± 7 µmol/L. The kcat (purified protein) was 0.000283 s⁻¹.
